Biological target: DENV2 sE WT (soluble envelope protein E of dengue virus 2, wild type) (dengue virus 2 (strain 16681))
Test: BLI

B1: EDE1 C10 quaternary epitope antibody (antibody, V domains shown)
VH: EVQLVESGAEVKKPGASVKVSCKASGYTFTSYAMHWVRQAPGQRLEWMGWINAGNGNTKYSQKFQDRVTITRDTSASTAYMELSSLRSEDTAIYYCARDKVDDYGDYWFPTLWYFDYWGQGTLVTVSS
VL: QSALTQPASVSGSPGQSITISCTGTSSDVGGFNYVSWFQQHPGKAPKLMLYDVTSRPSGVSSRFSGSKSGNTASLTISGLQAEDEADYYCSSHTSRGTWVFGGGTKLTVL
Kd: > 1000 nM

— article PMC8519570 (2021)
